Assay [1] has as its target K2-2 (phage tailspike protein, K2 capsular polysaccharide depolymerase), wild type with an N-terminal His-tag (not stated (bacteriophage of Klebsiella pneumoniae, phage not named)). In words: SEC-MALS; 100 microgram protein in 20 mM Tris pH 8.0, 100 mM NaCl, 0.02% NaN3; ENrich SEC 650 column, 0.5 ml/min.
The target is the same in assay [2]. In words: crystal structure; N-terminally His-tagged K2-2 (wild type, and E323A soaked with 10 mM hydrolyzed K2 CPS products for 18 h); crystallised at 15°C, 0.1 M Bicine pH 9.0, 22% PEG-6000; space groups P2(1) and C2.
Assay [3] concerns the target K2-2 D515A mutant (not stated (bacteriophage of Klebsiella pneumoniae, phage not named)). In words: SEC-MALS; 100 microgram protein in 20 mM Tris pH 8.0, 100 mM NaCl, 0.02% NaN3; ENrich SEC 650 column, 0.5 ml/min. For orientation: SEC sorts molecules by how far they enter the pores of the column.
The target in assay [4] is K2-2 E323A mutant (not stated (bacteriophage of Klebsiella pneumoniae, phage not named)). Briefly: crystal structure; N-terminally His-tagged K2-2 (wild type, and E323A soaked with 10 mM hydrolyzed K2 CPS products for 18 h); crystallised at 15°C, 0.1 M Bicine pH 9.0, 22% PEG-6000; space groups P2(1) and C2.
Assay [5] addresses K2-2 S424A mutant (not stated (bacteriophage of Klebsiella pneumoniae, phage not named)). Briefly: SEC-MALS; 100 microgram protein in 20 mM Tris pH 8.0, 100 mM NaCl, 0.02% NaN3; ENrich SEC 650 column, 0.5 ml/min.
The target in assay [6] is K2-2 with a C-terminal His-tag (K2-2^C-His) (not stated (bacteriophage of Klebsiella pneumoniae, phage not named)). Described as above.
Assay [7] shares this target. In words: crystal structure; K2-2^C-His crystallised at 15°C, 0.1 M Bicine pH 9.0, 10% PEG-4000, 10% polyacrylic acid 2100 sodium salt; Se-MAD phasing; space group P6(3).

“And” between values parts separate entries of the source, which are not always exact repeats. Equal values may be shown once.

As usually defined, the stoichiometry N is a count of units in the complex or per binding partner. For “K2-2 (phage tailspike protein, K2 capsular polysaccharide depolymerase), wild type with an N-terminal His-tag (enzyme)”, the stoichiometry N in assay [1] and in assay [2] was 3 throughout.

With K2-2 D515A mutant (enzyme), the stoichiometry N in assay [3] came to 2.

In turn, K2-2 E323A mutant (enzyme) yielded a stoichiometry N in assay [4] of 3.

In turn, K2-2 S424A mutant (enzyme) registered a stoichiometry N in assay [5] of 3.

Take “K2-2 with a C-terminal His-tag (K2-2^C-His) (enzyme)”: the stoichiometry N is 4 and 3 in assay [6]; 4 in assay [7].
